Target: T1, human-CD40 monomer (human, UniProt P25942 21-193, limits assumed)
T1 construct: also called hCD40-monomer; human-CD40-monomer protein
Assay: SPR 2 pt screen, Ab on protein A
Protocol: The VH sequences were formatted in the context of an IgG1.3f isotype. The Vκ sequences were formatted as a full light chain with a common CL sequence. All 55 combinations of these humanized HC and LC constructs, as well as the chimeric Y1238 molecule were expressed as 3 ml supernatants for binding analysis by SPR. Each of the 56 supernatants, as well as a purified Y1238-chimeric IgG1 antibody, was captured on a protein A sensor chip and tested for binding to two concentrations (i.e., 200 nM and 1000 nM) of hCD40-monomer using BIAcore™ SPR in a screening assay. All antibodies, except for those containing hz-HC3, captured at high levels (>300 RU) using a 100-fold dilution of the expression supernatant, indicating a high antibody titer in the supernatant except for the hz-HC3 samples. The kinetic data for the two concentrations of hCD40-monomer were fit to a 1:1 Langmuir model, to yield estimates of the kinetic and affinity values for these interactions, and for comparison of the different molecules. […] Also, for a given heavy chain, the antibodies with light chains hz-LC1 or hz-LC2 had higher CD40 affinity than those with hz-LC3, hz-LC4 or hz-LC5.

T1 sequence (P25942 21-193 limits assumed): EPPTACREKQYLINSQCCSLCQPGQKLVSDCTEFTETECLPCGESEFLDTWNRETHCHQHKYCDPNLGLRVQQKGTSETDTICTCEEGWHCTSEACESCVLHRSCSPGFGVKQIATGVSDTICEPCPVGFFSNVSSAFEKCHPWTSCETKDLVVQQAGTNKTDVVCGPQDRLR

B1: humanized Y1238 hz43 (hz-HC9 / hz-LC3), IgG1.3f (antibody, V domains shown)
VH: QVQLVQSGAEVVKPGASVKVSCKASGYAFTNYLIEWVRQRPGQGLEWMGVINPGSGGTNYNEKFKGRVTLTADKSSSTAYMQLSRLRSDDTAVYFCARSQLGRRFDYWGQGTTVTVSS
VL: DIQMTQSPSSLSASVGDRVTITCKASQDVRTGVAWYQQKPGQSPKLLIYSASYRNTGVPSRFSGSRSGTDFTFTISSLQPEDIAVYYCQQHYSPPYTFGGGTKVEIK
notes: IgG1.3f heavy constant, common CL; expression supernatant; also called Sup 43
- Kd: 7.6 nM
- koff: 0.00029 s⁻¹
- kon: 39000 M⁻¹ s⁻¹

B2: humanized Y1238 hz50 (hz-HC10 / hz-LC5), IgG1.3f (antibody, V domains shown)
VH: QVQLVQSGAEVKKPGASVKVSCKASGYAFTNYLIEWVRQRPGQGLEWMGVINPGSGGTNYNEKFKGRVTMTRDKSISTAYMELSRLRSDDTAVYYCARSQLGRRFDYWGQGTLVTVSS
VL: DIQMTQSPSSLSASVGDRVTITCKASQDVRTGVAWYQQKPGQAPKLLIYSASYRNTGVPSRFSGSRSGTDFTFTISSLQPEDIAVYYCQQHYSPPYTFGGGTKVEIK
notes: IgG1.3f heavy constant, common CL; expression supernatant; also called Sup 50
- Kd: 16 nM
- koff: 0.00061 s⁻¹
- kon: 39000 M⁻¹ s⁻¹

B3: humanized Y1238 hz46 (hz-HC10 / hz-LC1), IgG1.3f (antibody, V domains shown)
VH: QVQLVQSGAEVKKPGASVKVSCKASGYAFTNYLIEWVRQRPGQGLEWMGVINPGSGGTNYNEKFKGRVTMTRDKSISTAYMELSRLRSDDTAVYYCARSQLGRRFDYWGQGTLVTVSS
VL: DIQMTQSPSSLSASVGDRVTITCKASQDVRTGVAWYQQKPGKAPKLLIYSASYRNTGVPSRFSGSGSGTDFTFTISSLQPEDIATYYCQQHYSPPYTFGGGTKVEIK
notes: IgG1.3f heavy constant, common CL; expression supernatant; also called Sup 46
- Kd: 5.1 nM
- koff: 0.0002 s⁻¹
- kon: 39000 M⁻¹ s⁻¹

B4: humanized Y1238 hz44 (hz-HC9 / hz-LC4), IgG1.3f (antibody, V domains shown)
VH: QVQLVQSGAEVVKPGASVKVSCKASGYAFTNYLIEWVRQRPGQGLEWMGVINPGSGGTNYNEKFKGRVTLTADKSSSTAYMQLSRLRSDDTAVYFCARSQLGRRFDYWGQGTTVTVSS
VL: DIQMTQSPSSLSASVGDRVTITCKASQDVRTGVAWYQQKPGQSPKLLIYSASYRNTGVPSRFSGSRSGTDFTFTISSLQAEDIAVYYCQQHYSPPYTFGGGTKVEIK
notes: IgG1.3f heavy constant, common CL; expression supernatant; also called Sup 44
- Kd: 8.5 nM
- koff: 0.00033 s⁻¹
- kon: 39000 M⁻¹ s⁻¹

B5: humanized Y1238 hz45 (hz-HC9 / hz-LC5), IgG1.3f (antibody, V domains shown)
VH: QVQLVQSGAEVVKPGASVKVSCKASGYAFTNYLIEWVRQRPGQGLEWMGVINPGSGGTNYNEKFKGRVTLTADKSSSTAYMQLSRLRSDDTAVYFCARSQLGRRFDYWGQGTTVTVSS
VL: DIQMTQSPSSLSASVGDRVTITCKASQDVRTGVAWYQQKPGQAPKLLIYSASYRNTGVPSRFSGSRSGTDFTFTISSLQPEDIAVYYCQQHYSPPYTFGGGTKVEIK
notes: IgG1.3f heavy constant, common CL; expression supernatant; also called Sup 45
- Kd: 9.6 nM
- koff: 0.00038 s⁻¹
- kon: 39000 M⁻¹ s⁻¹

B6: humanized Y1238 hz47 (hz-HC10 / hz-LC2), IgG1.3f (antibody, V domains shown)
VH: QVQLVQSGAEVKKPGASVKVSCKASGYAFTNYLIEWVRQRPGQGLEWMGVINPGSGGTNYNEKFKGRVTMTRDKSISTAYMELSRLRSDDTAVYYCARSQLGRRFDYWGQGTLVTVSS
VL: DIQMTQSPSSLSASVGDRVTITCKASQDVRTGVAWYQQKPGKAPKLLIYSASYRNTGVPSRFSGSRSGTDFTFTISSLQPEDIATYYCQQHYSPPYTFGGGTKVEIK
notes: IgG1.3f heavy constant, common CL; expression supernatant; also called Sup 47
- Kd: 8.8 nM
- koff: 0.00032 s⁻¹
- kon: 36000 M⁻¹ s⁻¹

B7: humanized Y1238 hz49 (hz-HC10 / hz-LC4), IgG1.3f (antibody, V domains shown)
VH: QVQLVQSGAEVKKPGASVKVSCKASGYAFTNYLIEWVRQRPGQGLEWMGVINPGSGGTNYNEKFKGRVTMTRDKSISTAYMELSRLRSDDTAVYYCARSQLGRRFDYWGQGTLVTVSS
VL: DIQMTQSPSSLSASVGDRVTITCKASQDVRTGVAWYQQKPGQSPKLLIYSASYRNTGVPSRFSGSRSGTDFTFTISSLQAEDIAVYYCQQHYSPPYTFGGGTKVEIK
notes: IgG1.3f heavy constant, common CL; expression supernatant; also called Sup 49
- Kd: 12 nM
- koff: 0.00048 s⁻¹
- kon: 39000 M⁻¹ s⁻¹

B8: humanized Y1238 hz48 (hz-HC10 / hz-LC3), IgG1.3f (antibody, V domains shown)
VH: QVQLVQSGAEVKKPGASVKVSCKASGYAFTNYLIEWVRQRPGQGLEWMGVINPGSGGTNYNEKFKGRVTMTRDKSISTAYMELSRLRSDDTAVYYCARSQLGRRFDYWGQGTLVTVSS
VL: DIQMTQSPSSLSASVGDRVTITCKASQDVRTGVAWYQQKPGQSPKLLIYSASYRNTGVPSRFSGSRSGTDFTFTISSLQPEDIAVYYCQQHYSPPYTFGGGTKVEIK
notes: IgG1.3f heavy constant, common CL; expression supernatant; also called Sup 48
- Kd: 14 nM
- koff: 0.00055 s⁻¹
- kon: 39000 M⁻¹ s⁻¹

Source: patent US20220177596A1 (Bristol-Myers Squibb, published 2022)
